Data published in patent US20120184020A1, “ENGINEERED MICROORGANISMS WITH ENHANCED FERMENTATION ACTIVITY” (Verdezyne, Inc., priority 2009, published 2012).
Where “and” joins values, the source holds several entries; their conditions need not be identical. Equal values may be shown once.

B1: Ruminococcus xylose isomerase: native xylose isomerase from Ruminococcus flavefaciens strain 17, SEQ ID NO: 31 (protein, listed as Ruminococcus flavefaciens)
chain: MEFFSNIGKIQYQGPKSTDPLSFKYYNPEEVINGKTMREHLKFALSWWHTMGGDGTDMFGCGTTDKTWGQSDPAARAKAKVDAAFEIMDKLSIDYYCFHDRDLSPEYGSLKATNDQLDIVTDYIKEKQGDKFKCLWGTAKCFDHPRFMHGAGTSPSADVFAFSAAQIKKALESTVKLGGNGYVFWGGREGYETLLNTNMGLELDNMARLMKMAVEYGRSIGFKGDFYIEPKPKEPTKHQYDFDTATVLGFLRKYGLDKDFKMNIEANHATLAQHTFQHELRVARDNGVFGSIDANQGDVLLGWDTDQFPTNIYDTTMCMYEVIKAGGFTNGGLNFDAKARRGSFTPEDIFYSYIAGMDAFALGFRAALKLIEDGRIDKFVADRYASWNTGIGADIIAGKADFASLEKYALEKGEVTASLSSGRQEMLESIVNNVLFSL
B2: PAO1 EDD protein: phosphogluconate dehydratase (edd) of Pseudomonas aeruginosa PAO1, SEQ ID NO: 70 (protein, listed as Pseudomonas aeruginosa)
chain: MHPRVLEVTRRIQARSAATRQRYLEMVRAAASKGPHRGTLPCGNLAHGVAACGESDKQTLRLMNQANVAIVSAYNDMLSAHQPFERFPGLIKQALHEIGSVGQFAGGVPAMCDGVTQGEPGMELSLASRDVIAMSTAIALSHNMFDAALCLGVCDKIVPGLLIGSLRFGHLPTVFVPAGPMPTGISNKEKAAVRQLFAEGKATREELLASEMASYHAPGTCTFYGTANTNQLLVEVMGLHLPGASFVNPNTPLRDELTREAARQASRLTPENGNYVPMAEIVDEKAIVNSVVALLATGGSTNHTLHLLAIAQAAGIQLTWQDMSELSHVVPTLARIYPNGQADINHFQAAGGMSFLIRQLLDGGLLHEDVQTVAGPGLRRYTREPFLEDGRLVWREGPERSLDEAILRPLDKPFSAEGGLRLMEGNLGRGVMKVSAVAPEHQVVEAPVRIFHDQASLAAAFKAGELERDLVAVVRFQGPRANGMPELHKLTPFLGVLQDRGFKVALVTDGRMSGASGKVPAAIHVSPEAIAGGPLARLRDGDRVRVDGVNGELRVLVDDAEWQARSLEPAPQDGNLGCGRELFAFMRNAMSSAEEGACSFTESLNGWR
B3: E. coli EDA protein: 2-keto-3-deoxygluconate-6-phosphate aldolase (eda) isolated from E. coli genomic DNA (protein, UniProt P0A955 1-213, looked up)
KHG/KDPG aldolase: MKNWKTSAESILTTGPVVPVIVVKKLEHAVPMAKALVAGGVRVLEVTLRTECAVDAIRAIAKEVPEAIVGAGTVLNPQQLAEVTEAGAQFAISPGLTEPLLKAATEGTIPLIPGISTVSELMLGMDYGLKEFKFFPAEANGGVKALQAIAGPFSQVRFCPTGGISPANYRDYLALKSVLCIGGSWLVPADALEAGDYDRITKLAREAVEGAKL

What was measured:
[1] = system: engineered yeast (S. cerevisiae); assay: Heterologous xylose isomerase expression in yeast (active yes/no); assay type: cell-based; conditions: xylose isomerase of donor organism expressed in engineered yeast (S. cerevisiae)
[2] = Xylose isomerase activity/kinetic assay on soluble whole cell extract (sorbitol dehydrogenase coupled, NADH, A340); assay type: biochemical; conditions: xylose isomerase expressed in S. cerevisiae, total soluble crude extract; xylose concentrations between 40 and 500 nM (so in the source); Michaelis Mentin plots
Description: […] Louis, Mo.), and about 2 U sorbitol dehydrogenase (Roche) at about 30° C. […] A Beckman DU-800 was utilized with an Enzyme Mechanism software package (Beckman Coulter, Inc.), and the change in the A340 was monitored for 2-3 minutes.
[…] Louis, Mo.), and 2 U Sorbitol Dehydrogenase (SDH) (Roche, Indianapolis, Ind.) at about 30° C. […] A Beckman DU-800 spectrophotometer was utilized with an Enzyme Mechanism software package (Beckman Coulter, Inc, Brea, Calif.), and the change in the A340 was monitored for 2-3 minutes.
[…] Louis, Mo.), and 2 U sorbitol dehydrogenase (SDH) (Roche, Indianapolis, Ind.) at about 30° C. […] A Beckman DU-800 spectrophotometer was utilized with an Enzyme Mechanism software package (Beckman Coulter, Inc, Brea, Calif.), and the change in the A340 was monitored for 2-3 minutes.
Approximately 20 μg of soluble whole cell extract from each transformed cell line was prepared using Y-PER plus reagent as described above was incubated in a solution containing about 100 mM Tris, pH 7.5, 10 mM MgCl ? 2, 0.15 mM NADH (Sigma, St. Louis, Mo.), and 2 U Sorbitol Dehydrogenase (SDH) (Roche, Indianapolis, Ind.) at about 30° C. […] A Beckman DU-800 spectrophotometer was utilized with an Enzyme Mechanism software package (Beckman Coulter, Inc, Brea, Calif.), and the change in the A340 was monitored for 2-3 minutes.

[3] = Industrial yeast strain BF903 evaluation: aerobic growth and xylose consumption in YP-xylose; assay type: cell-based, Saccharomyces cerevisiae; conditions: commercial yeast strain BF903, YP-xylose with G418, aerobic, 30° C., 7 days
Description: A commercially available industrial diploid strain of Saccharomyces cerevisiae (strain BF903; “Stillspirits” triple distilled yeast, Brewcraft, Albany, New Zealand; available at Hydrobrew, Oceanside, Calif.) was obtained and was made competent for transformation using known yeast cell transformation procedures. […] Transformed yeast containing each construct were grown overnight aerobically in a 15 ml culture tube on YPD media containing 2% glucose. After about 24 hours, about 25 ml of YP media containing 2% glucose and 100 μg/ml G418 was seeded with the cells at an initial OD600 of 0.5 in a 250 ml Erlenmeyer flask and grown aerobically at 30° C. The cultures were then passaged once every 7 days into fresh media, also at an initial OD600 of 0.5.
Measurements were taken of the cell optical density (OD600) to assess cell density and plated onto YPD with 100 μg/ml G418 to ensure that the plasmid was stable. […] The strains were then grown overnight in YPD (with 100 μg/ml G418) and used to inoculate about 50 ml YP-xylose (with 100 μg/ml G418) into disposable 250 ml Erlenmeyer flasks with vented caps at an initial OD600 of about 1. The cultures were allowed to grow aerobically at 30° C. at 200 rpm for 7 days.

[4] = In vivo evaluation of xylose isomerase constructs in C5 strain: xylose fermentation, aerobic then anaerobic; assay type: cell-based, Saccharomyces cerevisiae; conditions: harvest at 372 hours
From the text: The engineered strain was designed to include the following genetic modifications: the native Pho13 gene (alkaline phosphatase specific for p-nitrophenyl phosphate) was disrupted by inserting a construct containing the native TLK1 gene (Transketolase-1); the native aldose reductase gene (Gre3) was disrupted by inserting a construct containing the native high-affinity glucose transporter-7 gene (HXT7); the native glucose-repressible alcohol dehydrogenase II gene (adh2) was disrupted by inserting a construct containing the native xylulokinase gene (XYLK); and the native orotidine-5′ phosphate decarboxylase gene (ura3) was disrupted by inserting a construct containing the native transaldolase 1 gene […]. The resulting strain had the following genotype: pho13::TKL1, gre3::HXT7, adh2::XYLK, ura3::TAL1.
The C5 strain was transformed using standard protocols with either p426GPD (as a control) or the chimeric variants XI-R, XI-Rp5, XI-Rp10, or XI-Rp15. The transformed cells were grown on SC-glucose minus uracil initially and then passaged onto SC-xylose minus uracil. Cultures of each of the above constructs were made in SC-xylose minus uracil—and grown for one week. The cultures were grown aerobically at 30° C. with 250 rpm agitation, 1 vvm sparge of process air, 21% O2. The pH was controlled at about 5.0 with 1N NaOH. […] At 24 hours elapsed fermentation time the fermentation was switched to anaerobic conditions. […] Oxygen was purged with 100% N2 sparge at 1 vvm until percent O2 was below 1%. Aeration was then set at 0.25 vvm 100% N2.
The final sample also measured biomass by dry cell weight.

[5] = Industrial yeast strain: serum bottle (anaerobic) growth and ethanol production on xylose; assay type: cell-based, Saccharomyces cerevisiae; conditions: sealed serum bottles, versus vector only control
Description: The serum bottles were sealed with a butyl rubber stopper to prevent air exchange. As a result, the cultures became anaerobic once the available oxygen in the serum bottle was utilized. In general, anaerobiosis (e.g., the onset of anaerobic conditions) occurred a few hours after the culture was inoculated. Xylose utilization, ethanol production and cell growth were measured every twenty four hours.

[6] = Anti-His western blot of EDD and EDA variants expressed in S. cerevisiae (soluble/insoluble fractions); design: species or system Saccharomyces cerevisiae; conditions: C-terminal HIS tag; total crude extract and solubilized extract
Description: Transformation of the p426GPD plasmids containing an edd or an eda variant gene into yeast strain BY4742 was accomplished using the Zymo Research frozen-EZ yeast transformation II kit according to the manufacturer's protocol. The transformed BY4742 cells were selected by growth on a synthetic dextrose medium (SD) (0.67% yeast nitrogen base-2% dextrose) containing complete amino acids minus uracil (Krackeler Scientific Inc). Plates were incubated at about 30° C. for about 48 hours. Transformant colonies for each edd and eda variant were inoculated onto 5 ml of SD minus uracil medium and cells were grown at about 30° C. and shaken at about 250 rpm for about 24 hours. Cells were harvested by centrifugation at 1000×g for about 5 minutes, after which protein crude extract was prepared with Y-PER Plus (Thermo Scientific) according to the manufacturer's instructions. Whole cell extract protein concentrations were determined using the Coomassie Plus Protein Assay (Thermo Scientific) according to the manufacturer's directions. For each edd and eda variant His-tagged construct, about 10 μg of soluble and insoluble fractions were loaded on 4-12% NuPAGE Novex Bis-Tris protein gels (Invitrogen) and proteins were analyzed by western using anti-(His)6 (SEQ ID NO: 138) mouse monoclonal antibody (Abcam) and HRP-conjugated secondary antibody (Abcam). […]

[7] = EDA activity assay: S. cerevisiae EDA extracts with saturating E. coli EDD extract (LDH coupled, NADH); assay type: biochemical
Description: EDA genes isolated from a variety of sources were expressed in yeast and evaluated independently of EDA activity, to identify EDA activities suitable of inclusion in an engineered yeast strain. […] The activity of integrated EDAs in Thermosacc-Gold haploids, were also evaluated in this manner.
EDD extractions (adapted from Chemyan et al, Protein Science 16:2368-2377, 2007): • 1) Pellet cells in 50 ml conical tubes, 4° C., 3,000 rpm, 10 mins, discard supernatant. • 2) Resuspend in 2 ml degassed PDGH buffer (20 mM MES pH 6.5, 30 mM NaCl, 5 mM MnCl2, 0.5 mM FeCl2, 10 mM 2-mercaptoethanol, 10 mM cysteine, sparged with nitrogen gas). Move to hungate tube. • 3) Add 0.1% Triton X-100, 10 ng/ml DNase, 10 μg/ml PMSF, 10 μg/ml TAME (Na-(p-toluene sulfonyl)-L-arginine methyl ester), 100 μg/ml lysozyme. • 4) Sparge hungate tube with nitrogen gas, cap and seal. Incubate 2 hours at 37° C., swirl occasionally. • 5) Clarify by centrifugation in 2-ml tube, 4° C., 10 mins, 14,000 rpm. Keep supernatant. • 6) Treat with 150 mM pyruvate and 10 mM sodium cyanoborohydride (work in hood) to inactivate aldolase activity. Incubate 30 mins at room temperature. • 7) During incubation, pre-equilibrate PD-10 column from GE • a. Remove top cap, pour off storage buffer. • b. Cut off bottom tip, fit in 50 ml conical with adapter. • c. Pour 5 ml of 20 mM MES buffer, pH 6.5 (total of 5 times). Discard flow-through. • 8) Run sample through column, then add MES buffer to a total of 2.5 ml volume added. Discard flow-through. • 9) Run 3.5 ml 20 mM MES pH 6.5 buffer to elute protein. Discard column in appropriate waste receptacle. • 10) Perform Bradford assay (1:10 or 1:20 dilution).
• 1) Spin down in 50 ml conicals, 4° C., 3,400 rpm, 5 mins. […]
Each reaction contains 50 mM Tris-HCl, pH 7, 10 mM MgCl2, 0.15 mM NADH, 15 μg LDH, saturating amounts of EDD determined empirically (usually −100 μg), 1-50 μg EDA (depending on level of activity), and 1 mM 6-phosphogluconate. Reactions are started by the addition of 6-phosphogluconate and monitored for 5 mins at 30° C.

| Molecule | Active? (yes/no) [1] | Specific Activity [2] [µmol/min/mg] | xylose consumption (FIG. 11) [3] | Glucose [4] [g/L] | Ethanol ([4]; listed as XI-R) | Xylose ([4]; listed as XI-R) | cell density (FIG. 12) ([5]; YP plus xylose) | ethanol production (FIG. 12) ([5]; xylose as a carbon source) | expression and solubility in S. cerevisiae (western, FIGS. 13A and 13B) [6] | EDA activity relative to EDA from P. aeruginosa ([7]; E. coli EDA slope outside the linear range, underestimated) | EDA activity compared (in words) ([7]; EDAs expressed in S. cerevisiae, saturating E. coli EDD extract) |
| --- | --- | --- | --- | --- | --- | --- | --- | --- | --- | --- | --- |
| B1 | Yes | 0.9605 | more efficient at consuming xylose than the strain carrying the vector control only | 0 | 15.65 g/L and 15.5 g/L | 3.14 g/L and 3.85 g/L | higher cell density | more ethanol | – | – | – |
| B2 | – | – | – | – | – | – | – | – | expressed and soluble | – | – |
| B3 | – | – | – | – | – | – | – | – | expressed and soluble | approximately 16 fold | most active |
